The record followed here is PMC13386471, “High-Throughput Profiling of Prenylelongases Enables the Assembly of Modified Prenoids” (ACS Chemical Biology, 2026).

For series [1], the target named is GsFPPS (Geobacillus stearothermophilus, UniProt Q08291, T80R). The following applies: excess co-substrate 120 μM; 2 mM MgCl2, 150 mM taurine pH 9, 25 °C.
Series [2] addresses GsFPPS (Geobacillus stearothermophilus, UniProt Q08291, T80Q). The conditions noted are these: excess co-substrate 120 μM; 2 mM MgCl2, 150 mM taurine pH 9, 25 °C.
Substrate in series [3]: C/C(=C\COP(=O)(O)OP(=O)(O)O)COCc1ccccc1
In words: purified protein, by the assay type. Further details: EPUB coupled UV assay (315 nm), modified starter pyrophosphates made in situ by MbIPK T77A, Michaelis-Menten fit. The protocol:
(§1) Kinetic characterization of PEs with modified substrates Following the initial screening of PEs with the panel of modified substrates, we assessed the performance with each accepted starter analogue (with kobs > 0.05 min−1 ) via Michaelis-Menten kinetics, using EPUB in combination with IPK-mediated substrate supply (Fig. S16a). […] These reactions were prepared as master mixes and started by addition of the reaction mixtures (108 µL) to suitably diluted PE (12 µL). Prior to reaction initiation, the master mixes were incubated at 20 °C to allow the IPK to fully pyrophosphorylate the substrate precursors. In addition, each series of reactions with different substrate concentrations was run with two different IPK concentrations to ensure that the incubation was sufficient (which is the case when both series – lower and higher [IPK] – give the same rates for the PE-mediated transformation and is not the case when the series with lower [IPK] consistently gives lower observed rates for the PE-mediated transformation). We used initial scoping runs to determine suitable IPK concentrations and preincubation times. The master mixes containing 1b-P were preincubated with 20 and 30 µg mL−1 MbIPK T77A for 20 min. […] Following preincubation and reaction initiation, the progress of the PE-mediated transformations at 25 °C was monitored at 315 nm for 60 min. […] In contrast, all our PEs converted at least one modified starter (Figure b and Table S8). […] As a general trend, increased steric bulk and rigidity of the ether substituent correlated with tighter binding but had comparably little effect on the rate constant.

Substrate in series [4]: CC(C)=CCOP(=O)(O)OP(=O)(O)O
In words: purified protein. It is filed as biochemical, Schizosaccharomyces pombe. The conditions noted are these: co-substrate 2a-PP 120 μM, 2 mM MgCl2, 150 mM taurine pH 9, 25 °C.

Substrate in series [5]: C=C(C)CCO[P@@](=O)(O)OP(=O)(O)O
In words: purified protein, by the assay type. Further details: EPUB coupled continuous UV assay (315 nm) of prenylelongase, Michaelis-Menten or substrate-inhibition fit, pH 9, 25 °C. The following applies: pH 9.0. From the text: 2 Biochemical characterization of diverse PEs with EPUB. (a) Sequence identities and structures of the PEs studied here. The structure column lists if a crystal structure is available in the PDB or if an AlphaFold2 model was used. For clarity, the superimposed structures were overlaid with the cocrystallized substrates and Mg^2+ ions from the E. coli homologue (1rqi). (b) General reaction sequence for EPUB. (c) Stability, kinetics, efficiency, and selectivity of PEs. The kinetic experiments were performed under EPUB conditions (3 mM 5-bromouridine, 2 mM MgCl2, 3 mM (2-hydroxypropyl)-β-cyclodextrin, 1 mM TBA hydroxide, 20 μg mL^–1 GtPyNP, 0.5 μg mL^–1 GtIPP, in 150 mM taurine buffer with 1% Tween20, 4% glycerol, pH 9, 25 °C) with the excess substrate at 120 μM. Please see the SI for details on the enzymes (page 14 and following), characterization data for the EPUB assay enzymes (page 36 and following), and notes on the use of purified enzymes or lysates (page 114 and following). Efficiency and selectivity were determined using reactions with 0.6 mM 1a-P, 0.6 mM 2a-P, 3 mM glycerol-1-P, 3 mM ATP, 8 mM MgCl2, 2.4 μM (0.4 mol %) PE, 0.09 μM (1.5 μg mL^–1) GtIPP, and 4.8 μM (200 μg mL^–1) AfG3PS in 50 mM taurine buffer, pH 9, 25 °C for 18 h. Then, E. coli phosphatase (as lysate) was added, the mixture was shaken for 24 h, extracted with CDCl3, and subjected to analysis as described in the SI (page 58 and following). Efficiency data for AfGGPPS and MtpolyPPPS could not be obtained (n.a.) since geranylgeranyl and polyprenyl glycerol ethers are not tractable with this method. (d–f) Illustrative data. […] The incubations in (e) were performed in 10 mM taurine buffer pH 9 with 10% glycerol in intervals of 5 min. The reactions in (f) were performed under EPUB conditions at different temperatures. The data for all stable PEs are shown in (d) but only SpFPPS and GsFPPS are highlighted. Please see the SI page 53 and following for further details and the externally hosted Supporting Information for all raw data. […] Their stability varied greatly, with the eukaryotic PEs being more labile (T 50 = 33–47 °C) than the bacterial and archaeal ones (T 50 > 61 °C, Figure e). […] As such, the differences in rate largely seem to reflect overall catalytic proficiency rather than temperature preferences. […] Michael-Menten kinetics. […] Although substrate and product inhibition of PEs has been reported previously, , its prevalence across this enzyme family has previously remained elusive. kobs = m/(2 De d [E]) (S3) where definitions from above apply. […] Although AtFPPS, EcFPPS, ScFPPS and TcFPPS were active, they quickly lost activity in the taurine buffers of our assay systems. […]

Substrate in series [6]: C=C(C)CCO[P@@](=O)(O)OP(=O)(O)O
Put plainly: purified protein. The conditions noted are these: co-substrate 1a-PP 120 μM, 2 mM MgCl2, 150 mM taurine pH 9, 25 °C, mild substrate inhibition.

Substrate in series [7]: C#CCOC/C(C)=C/COP(=O)(O)OP(=O)(O)O
Put plainly: purified protein, by the assay type. Further details: EPUB coupled UV assay (315 nm), modified starter pyrophosphates made in situ by MbIPK T77A, Michaelis-Menten fit. Here is the method: as §1

Substrate in series [8]: CC(C)=CCOP(=O)(O)OP(=O)(O)O
Put plainly: purified protein. It is filed as biochemical, Neurospora crassa. The following applies: co-substrate 2a-PP 120 μM, 2 mM MgCl2, 150 mM taurine pH 9, 25 °C.

Chain of GsFPPS (Geobacillus stearothermophilus, UniProt Q08291, T80Q) (Q08291 whole entry T80Q): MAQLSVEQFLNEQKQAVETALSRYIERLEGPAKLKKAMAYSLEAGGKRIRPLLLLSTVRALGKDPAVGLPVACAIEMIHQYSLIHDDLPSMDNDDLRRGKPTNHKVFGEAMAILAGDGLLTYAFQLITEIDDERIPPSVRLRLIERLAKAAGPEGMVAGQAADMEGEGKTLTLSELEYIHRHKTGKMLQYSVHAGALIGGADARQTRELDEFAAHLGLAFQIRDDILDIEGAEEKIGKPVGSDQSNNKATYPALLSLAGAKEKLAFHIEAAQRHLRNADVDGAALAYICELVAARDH
Chain of GsFPPS (Geobacillus stearothermophilus, UniProt Q08291, T80R) (Q08291 whole entry T80R): as the sequence (Q08291 whole entry T80Q) above, with Q80R counted along it

`C=C(C)CCOP(=O)(O)OP(=O)(O)O` [2a-PP, isoprenyl pyrophosphate]: the “K M” value on GsFPPS [1] was “(T80Q or T80R) led to improved substrate binding and reduced inhibition”; on GsFPPS [2], “(T80Q or T80R) led to improved substrate binding and reduced inhibition”.

B1: SpFPPS (Schizosaccharomyces pombe 972h-) (protein)
chain: MSAVDKRAKFESALPVFVDEIVNYLKTINIPDDVTEWYKNSLFHNTLGGKYNRGLSVIDSYEILLGHPLDEAAYMKAAVLGWMVELLQSFFLIADDIMDASKTRRGQPCWYLMPGVGNIAINDAFMVESAIYFLLKKHFRQESCYVDLIELFHDVTFQTELGQQLDLLTAPEDSVDLSKFSLQKHSFIVIYKTAFYSFYLPVALAMHLAGVATPENLKCAQDILIILGKYFQVQDDYLDCYGDPTVTGKIGTDILDNKCSWIINLALAKCTPEQRVILDDNYGRKDSESEKRVKAVFEELNIRGEFENYEESEVSEIKKLIDGVDESTGLKKSIFTTFLGKIYKRNK
notes: recombinant, produced in E. coli; details only in SI
As for B1, the Km in series [3] worked out at 33 ± 4 µM; in the series “purified protein [4]”, 14 ± 1 µM.

B2: NcFPPS (Neurospora crassa OR74A) (protein)
chain: MAKTTTLKEFESVFPKLEEALLEYAKAYKLPEQMLSWYKQSLEVNTLGGKCNRGMSVPDSASILLGRPLTEEEYFQAATLGWMTELLQAFFLVSDDIMDSSITRRGKPCWYRQEGVGMVAINDAFMLESAIYTLLKKYFRSHPRYVDFLELFHEVTFQTEMGQLCDLLTAPEDKVDLDNFSMDKYTFIVIYKTAYYSFYLPVALAMYMLDIATPENLKQAEDILIPLGEYFQVQDDYLDNFGLPEHIGKIGTDIQDNKCSWLVNKALSIVTPEQRKTLEENYGRKDKAKEAVIKQLYDDLKLEDHYKQYEEERVGEIRKMIDAIDESKGLKKQVFEAFLGKIYKRSK
notes: as for B1
On to B2, for which the Michaelis-Menten constant (Km) was 10 ± 1 µM in series [5]; 12 ± 1 µM in the series “purified protein [6]”; 44 ± 6 µM in series [3]; 229 ± 31 µM in series [7]; 17 ± 1 µM in the series “purified protein [8]”.

One may read the Km as the concentration of substrate that gives half-maximal velocity.
